Test results as given in PMC11574045, “A cofactor-induced repressive type of transcription factor condensation can be induced by synthetic peptides to suppress tumorigenesis” (The EMBO Journal, 2024).

B1: HDAC11 (protein, UniProt Q96DB2 1-347, looked up)
Histone deacetylase 11: MLHTTQLYQHVPETRWPIVYSPRYNITFMGLEKLHPFDAGKWGKVINFLKEEKLLSDSMLVEAREASEEDLLVVHTRRYLNELKWSFAVATITEIPPVIFLPNFLVQRKVLRPLRTQTGGTIMAGKLAVERGWAINVGGGFHHCSSDRGGGFCAYADITLAIKFLFERVEGISRATIIDLDAHQGNGHERDFMDDKRVYIMDVYNRHIYPGDRFAKQAIRRKVELEWGTEDDEYLDKVERNIKKSLQEHLPDVVVYNAGTDILEGDRLGGLSISPAGIVKRDELVFRMVRGRRVPILMVTSGGYQKRTARIIADSILNLFGLGLIGPESPSVSAQNSDTPLLPPAVP
B2: HELT (protein, UniProt A6NFD8 1-242, looked up)
Hairy and enhancer of …: MSDKLKERKRTPVSHKVIEKRRRDRINRCLNELGKTVPMALAKQSSGKLEKAEILEMTVQYLRALHSADFPRGREKAELLAEFANYFHYGYHECMKNLVHYLTTVERMETKDTKYARILAFLQSKARLGAEPAFPPLGSLPEPDFSYQLHPAGPEFAGHSPGEAAVFPQGSGAGPFPWPPGAARSPALPYLPSAPVPLASPAQQHSPFLTPVQGLDRHYLNLIGHAHPNALNLHTPQHPPVL
B3: HES1 (protein, UniProt Q14469 1-280, looked up)
Transcription factor HES-1: MPADIMEKNSSSPVAATPASVNTTPDKPKTASEHRKSSKPIMEKRRRARINESLSQLKTLILDALKKDSSRHSKLEKADILEMTVKHLRNLQRAQMTAALSTDPSVLGKYRAGFSECMNEVTRFLSTCEGVNTEVRTRLLGHLANCMTQINAMTYPGQPHPALQAPPPPPPGPGGPQHAPFAPPPPLVPIPGGAAPPPGGAPCKLGSQAGEAAKVFGGFQVVPAPDGQFAFLIPNGAFAHSGPVIPVYTSNSGTSVGPNAVSPSSGPSLTADSMWRPWRN
B4: HDAC8 (protein, UniProt Q9BY41 1-377, looked up)
Histone deacetylase 8: MEEPEEPADSGQSLVPVYIYSPEYVSMCDSLAKIPKRASMVHSLIEAYALHKQMRIVKPKVASMEEMATFHTDAYLQHLQKVSQEGDDDHPDSIEYGLGYDCPATEGIFDYAAAIGGATITAAQCLIDGMCKVAINWSGGWHHAKKDEASGFCYLNDAVLGILRLRRKFERILYVDLDLHHGDGVEDAFSFTSKVMTVSLHKFSPGFFPGTGDVSDVGLGKGRYYSVNVPIQDGIQDEKYYQICESVLKEVYQAFNPKAVVLQLGADTIAGDPMCSFNMTPVGIGKCLKYILQWQLATLILGGGGYNLANTARCWTYLTGVILGKTLSSEIPDHEFFTAYGPDYVLEITPSCRPDRNEPHRIQQILNYIKGNLKHVV
B5: HES2 (protein, UniProt Q9Y543 1-173, looked up)
Transcription factor HES-2: MGLPRRAGDAAELRKSLKPLLEKRRRARINQSLSQLKGLILPLLGRENSNCSKLEKADVLEMTVRFLQELPASSWPTAAPLPCDSYREGYSACVARLARVLPACRVLEPAVSARLLEHLWRRAASATLDGGRAGDSSGPSAPAPAPASAPEPASAPVPSPPSPPCGPGLWRPW
B6: GTF2IRD1 (protein, UniProt Q9UHL9 1-959, looked up)
General transcription factor …: MALLGKRCDVPTNGCGPDRWNSAFTRKDEIITSLVSALDSMCSALSKLNAEVACVAVHDESAFVVGTEKGRMFLNARKELQSDFLRFCRGPPWKDPEAEHPKKVQRGEGGGRSLPRSSLEHGSDVYLLRKMVEEVFDVLYSEALGRASVVPLPYERLLREPGLLAVQGLPEGLAFRRPAEYDPKALMAILEHSHRIRFKLKRPLEDGGRDSKALVELNGVSLIPKGSRDCGLHGQAPKVPPQDLPPTATSSSMASFLYSTALPNHAIRELKQEAPSCPLAPSDLGLSRPMPEPKATGAQDFSDCCGQKPTGPGGPLIQNVHASKRILFSIVHDKSEKWDAFIKETEDINTLRECVQILFNSRYAEALGLDHMVPVPYRKIACDPEAVEIVGIPDKIPFKRPCTYGVPKLKRILEERHSIHFIIKRMFDERIFTGNKFTKDTTKLEPASPPEDTSAEVSRATVLDLAGNARSDKGSMSEDCGPGTSGELGGLRPIKIEPEDLDIIQVTVPDPSPTSEEMTDSMPGHLPSEDSGYGMEMLTDKGLSEDARPEERPVEDSHGDVIRPLRKQVELLFNTRYAKAIGISEPVKVPYSKFLMHPEELFVVGLPEGISLRRPNCFGIAKLRKILEASNSIQFVIKRPELLTEGVKEPIMDSQGTASSLGFSPPALPPERDSGDPLVDESLKRQGFQENYDARLSRIDIANTLREQVQDLFNKKYGEALGIKYPVQVPYKRIKSNPGSVIIEGLPPGIPFRKPCTFGSQNLERILAVADKIKFTVTRPFQGLIPKPDEDDANRLGEKVILREQVKELFNEKYGEALGLNRPVLVPYKLIRDSPDAVEVTGLPDDIPFRNPNTYDIHRLEKILKAREHVRMVIINQLQPFAEICNDAKVPAKDSSIPKRKRKRVSEGNSVSSSSSSSSSSSSNPDSVASANQISLVQWPMYMVDYAGLNVQLPGPLNY
B7: HES5 (protein, UniProt Q5TA89 1-166, looked up)
Transcription factor HES-5: MAPSTVAVELLSPKEKNRLRKPVVEKMRRDRINSSIEQLKLLLEQEFARHQPNSKLEKADILEMAVSYLKHSKAFVAAAGPKSLHQDYSEGYSWCLQEAVQFLTLHAASDTQMKLLYHFQRPPAAPAAPAKEPKAPGAAPPPALSAKATAAAAAAHQPACGLWRPW
B8: HES3 (protein, UniProt Q61657 1-175, looked up)
Transcription factor HES-3: MEKKRRARINVSLEQLRSLLERHYSHQIRKRKLEKADILELSVKYMRSLQNSLQGLWPVPSGVDYPSGFQGGLRGVSQRLRPGEGDSGLRCPLLLQRREGSTTDSANPQATSVLNPCLPAIWAPSRAAGGSHSPQSPLPLPGGLLESSTDVVAPHPASNCQAESTRPGFRVWRPW
B9: HAND1 (protein, UniProt O96004 1-215, looked up)
Heart- and neural crest …: MNLVGSYAHHHHHHHPHPAHPMLHEPFLFGPASRCHQERPYFQSWLLSPADAAPDFPAGGPPPAAAAAATAYGPDARPGQSPGRLEALGGRLGRRKGSGPKKERRRTESINSAFAELRECIPNVPADTKLSKIKTLRLATSYIAYLMDVLAKDAQSGDPEAFKAELKKADGGRESKRKRELQQHEGFPPALGPVEKRIKGRTGWPQQVWALELNQ
B10: HEYL (protein, UniProt Q9NQ87 1-328, looked up)
Hairy/enhancer-of-split …: MKRPKEPSGSDGESDGPIDVGQEGQLSQMARPLSTPSSSQMQARKKHRGIIEKRRRDRINSSLSELRRLVPTAFEKQGSSKLEKAEVLQMTVDHLKMLHATGGTGFFDARALAVDFRSIGFRECLTEVIRYLGVLEGPSSRADPVRIRLLSHLNSYAAEMEPSPTPTGPLAFPAWPWSFFHSCPGLPALSNQLAILGRVPSPVLPGVSSPAYPIPALRTAPLRRATGIILPARRNVLPSRGASSTRRARPLERPATPVPVAPSSRAARSSHIAPLLQSSSPTPPGPTGSAAYVAVPTPNSSSPGPAGRPAGAMLYHSWVSEITEIGAF
B11: APBB1 (protein, UniProt O00213 1-710, looked up)
Amyloid beta precursor …: MSVPSSLSQSAINANSHGGPALSLPLPLHAAHNQLLNAKLQATAVGPKDLRSAMGEGGGPEPGPANAKWLKEGQNQLRRAATAHRDQNRNVTLTLAEEASQEPEMAPLGPKGLIHLYSELELSAHNAANRGLRGPGLIISTQEQGPDEGEEKAAGEAEEEEEDDDDEEEEEDLSSPPGLPEPLESVEAPPRPQALTDGPREHSKSASLLFGMRNSAASDEDSSWATLSQGSPSYGSPEDTDSFWNPNAFETDSDLPAGWMRVQDTSGTYYWHIPTGTTQWEPPGRASPSQGSSPQEESQLTWTGFAHGEGFEDGEFWKDEPSDEAPMELGLKEPEEGTLTFPAQSLSPEPLPQEEEKLPPRNTNPGIKCFAVRSLGWVEMTEEELAPGRSSVAVNNCIRQLSYHKNNLHDPMSGGWGEGKDLLLQLEDETLKLVEPQSQALLHAQPIISIRVWGVGRDSGRERDFAYVARDKLTQMLKCHVFRCEAPAKNIATSLHEICSKIMAERRNARCLVNGLSLDHSKLVDVPFQVEFPAPKNELVQKFQVYYLGNVPVAKPVGVDVINGALESVLSSSSREQWTPSHVSVAPATLTILHQQTEAVLGECRVRFLSFLAVGRDVHTFAFIMAAGPASFCCHMFWCEPNAASLSEAVQAACMLRYQKCLDARSQASTSCLPAPPAESVARRVGWTVRRGVQSLWGSLKPKRLGAHTP
B12: HHEX (protein, UniProt Q03014 1-270, looked up)
Hematopoietically-expressed …: MQYPHPGPAAGAVGVPLYAPTPLLQPAHPTPFYIEDILGRGPAAPTPAPTLPSPNSSFTSLVSPYRTPVYEPTPIHPAFSHHSAAALAAAYGPGGFGGPLYPFPRTVNDYTHALLRHDPLGKPLLWSPFLQRPLHKRKGGQVRFSNDQTIELEKKFETQKYLSPPERKRLAKMLQLSERQVKTWFQNRRAKWRRLKQENPQSNKKEELESLDSSCDQRQDLPSEQNKGASLDSSQCSPSPASQEDLESEISEDSDQEVDIEGDKSYFNAG
B13: HELIOS (protein, UniProt Q9UKS7 1-526, looked up)
Zinc finger protein Helios: METEAIDGYITCDNELSPEREHSNMAIDLTSSTPNGQHASPSHMTSTNSVKLEMQSDEECDRKPLSREDEIRGHDEGSSLEEPLIESSEVADNRKVQELQGEGGIRLPNGKLKCDVCGMVCIGPNVLMVHKRSHTGERPFHCNQCGASFTQKGNLLRHIKLHSGEKPFKCPFCSYACRRRDALTGHLRTHSVGKPHKCNYCGRSYKQRSSLEEHKERCHNYLQNVSMEAAGQVMSHHVPPMEDCKEQEPIMDNNISLVPFERPAVIEKLTGNMGKRKSSTPQKFVGEKLMRFSYPDIHFDMNLTYEKEAELMQSHMMDQAINNAITYLGAEALHPLMQHPPSTIAEVAPVISSAYSQVYHPNRIERPISRETADSHENNMDGPISLIRPKSRPQEREASPSNSCLDSTDSESSHDDHQSYQGHPALNPKRKQSPAYMKEDVKALDTTKAPKGSLKDIYKVFNGEGEQIRAFKCEHCRVLFLDHVMYTIHMGCHGYRDPLECNICGYRSQDRYEFSSHIVRGEHTFH
B14: HESX (protein, UniProt Q9UBX0 1-185, looked up)
Homeobox expressed in ES …: MSPSLQEGAQLGENKPSTCSFSIERILGLDQKKDCVPLMKPHRPWADTCSSSGKDGNLCLHVPNPPSGISFPSVVDHPMPEERASKYENYFSASERLSLKRELSWYRGRRPRTAFTQNQIEVLENVFRVNCYPGIDIREDLAQKLNLEEDRIQIWFQNRRAKLKRSHRESQFLMAKKNFNTNLLE
B15: HLF (protein, UniProt Q16534 1-295, looked up)
Hepatic leukemia factor: MEKMSRPLPLNPTFIPPPYGVLRSLLENPLKLPLHHEDAFSKDKDKEKKLDDESNSPTVPQSAFLGPTLWDKTLPYDGDTFQLEYMDLEEFLSENGIPPSPSQHDHSPHPPGLQPASSAAPSVMDLSSRASAPLHPGIPSPNCMQSPIRPGQLLPANRNTPSPIDPDTIQVPVGYEPDPADLALSSIPGQEMFDPRKRKFSEEELKPQPMIKKARKVFIPDDLKDDKYWARRRKNNMAAKRSRDARRLKENQIAIRASFLEKENSALRQEVADLRKELGKCKNILAKYEARHGPL

System: HEK293FT cells transfected with TF library
Experiment: Screening of TF condensates based on fluorescent puncta
Format: cell-based
Conditions: Figure 1B numerical data; TF library screen, one value per transcriptional factor
In short: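 Puncta scoring used automated confocal imaging of fifty random fields per well, after anti-Flag or anti-GAL4 immunofluorescence (Alexa 488) in PFA-fixed cells. HEK293FT cells carried TF library plasmids delivered with PEI (1.6 μg/ml DNA). At 60 h they were switched for 12 h to glucose-containing or glucose-free medium.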

Molecule	Z score of condensed fraction
B1	0.2732
B2	-0.4669
B3	-0.8248
B4	0.9737
B5	-1.172
B6	-0.874
B7	-0.9865
B8	-1.103
B9	-0.3888
B10	1.497
B11	2.844
B12	-0.4373
B13	-0.5188
B14	-0.5047
B15	2.55
